Assay results from publication PMC7955051.

Columns and labels:
[1] = biological target: RSV IN 1–278 (Rous sarcoma virus integrase, C-terminal truncation of 8 amino acids) (Rous sarcoma virus (Prague A)); assay: cryo-EM structure
[2] = biological target: RSV IN 1–278 (Rous sarcoma virus integrase, C-terminal truncation of 8 amino acids) (Rous sarcoma virus (Prague A)); assay: SEC
[3] = biological target: RSV IN S262R (recombinant) (Rous sarcoma virus (Prague A)); assay: not stated; CSC assembly with recombinant IN mutants (Supplementary Fig. 11)

Row | Substance | stoichiometry N [1] | stoichiometry N [2] | stoichiometry N [3]
1 | RSV IN 1–278 (Rous sarcoma virus integrase, C-terminal truncation of 8 amino acids) (domain or fragment) | 8 | 8 | –
2 | RSV IN S262R (recombinant) (enzyme) | – | – | 8
